Experiment: label from the status in PepcDB records

Sequence: MHFKKSLVRSLITLAITATASTTVLANEVSGDISKFKSVGNEVNTKQKATGYIVQLKGKTAIAQAQEIGELLPTNQLVANTGNRYNAHTPAMEAYTKALENKQKQVASSIDSINILHSFKHTYNGFTAKLNAKQKAQLESHPDVIGVYEDKLETVNTANTPEFLGLTGAGGQHAMNIKGEGVIIGVIDTGVWPENPSFADDGSYSDPADLGWLGSCDTGTDEEFACNNKLIGAKYFDSSFSSQYDIQYDLGEFDSPRDADGHGSHTASTAGGNESVAAMLSGTPVGTVSGMAPRARIAAYKVCWNSDYKNPEGGDEAGCFGGDTMAAIDAAVTDGVDVINYSIGGSRTDLTVPATAAMLNATAAGVFVAVSAGNDGPDKETVGTPAPWVTSVAASTYNGTSAIVGKALDITSGTLAGSSILSVPSGFSPATVGLSGELALAEPVQACNDAPLTNGEDLAGKIALIARGSCAFTEKFLNAQNAGAVGAIIYTTEGTSPFSMGGTDPAVTITGSMISFADGQSLTASIEDGSTSVAFTDNTAAGEAVEVGNTMADFSSRGPNLNTYDIIKPDITAPGVKILAATTSAPMFGTQGETFKYLQGTSMSSPHIAGLAALFKESNSSWSPAQIKSAMMTTARQNLTKEDGTTQADPYDFGSGHVAPVSALDPGLLFDTNLADYLAFLCGQDKEAFVSGYDTSCADLATAGFSTDASQLNLASIAIAELLEPETIFRTVSNATPIASSYTATVEAPAGFDISVQTFDAAGEETEASTLDVAAEGGKASFAITVSQTETTEIEAWKFGAITWTDGAGHSVRLPLAIKAIPSVQIEVPELISGDLNRGRFRFPVKMLYSGRTSIKHAGLVAPFGTAGTVEADPAQEFEFLGAGTNYHLFHIPEGTQVARFSLSDALVTEEGSDLDLYVYRCDKWSCAQVANSLNGGSNEDVVLTNPEPRADVDVGDVYVTMIHGYSTGAATETDYTMVGWIADQAERTTRVISSRRAINGRFNYTSILTRGLPTGTTYMGAVTYFNAEGEAEGTTVLELKN
- protein production: failed

Sequence: MSEAVPSVVAIDIGTHKVSVLIGKVHAPDNIQVIGMATARNRGMNKGKIVSLDKVISAIKNAVAEAENMAECRVHTAWVSIPTTELQSFYASGRIPIAKADHTITTNEVVRALELAKASHVTPDYYLASAVPLGFELDDSSEWVQNPINMSAHSMTGHYQLMMMPISIMQNLDRAMKGASIGVEKMVVSCLATAEASLLKDEKEYGVCLLDIGAGTTNIAVYLDGRLALARTLQRGGENVTRDIAAVLQTTTEEAERIKILHGCVDLSAIKPDQMIQVQAIDGPQTISRIELAEIIIARYEEILGQVRDELERSGAIHGLYHGVVLTGDACQIEGMISLARRILGVSAHLGNPPLQVYADDQHQASIRRSMYATAAGLLMFSQSELQDTVEDSEEASQRSLWNRVANGWNTLNTKLKAIF
- protein production: failed

Sequence: MPGYQKTKDVGHFLSVTGTVIRTSLVKVLEFERDYMCNKCKHVFVIKADFEQYYTFCRPSSCPSLESCDSSKFTCLSGLSSSPTRCRDYQEIKIQEQVQRLSVGSIPRSMKVILEDDLVDSCKSGDDLTIYGIVMQRWKPFQQDVRCEVEIVLKANYIQVNNEQSSGIIMDEEVQKEFEDFWEYYKSDPFAGRNVILASLCPQVFGMYLVKLAVAMVLAGGIQRTDATGTRVRGESHLLLVGDPGTGKSQFLKYAAKITPRSVLTTGIGSTSAGIVLNCTVSPGSLVCKLNTRTTILAATNPKGQYDPQESVSVNIALGSPLLSRFDLILVLLDTKNEDWDRIISSFILENKGYPSKSEKLWSMEKMKTYFCLIRNLQPTLSDVGNQVLLRYYQMQRQSDCRNAARTTIRLLESLIRLAEAHARLMFRDTVTLEDAITVVSVMESSMEVHC
- protein production: failed

Sequence: MTGCSHRFYYSHMIQTSVRSFEVGEDLASMAVDERISLLRSRMQSISKSGDFSLDYNCKTADKNIIPLSDPLSHVLPWGGLPRGMIVESTITPLLAILFIAQVSGSGRRVGVVGWPDLNYAGVLGYGGCYERIFAVPQQERTSLRVVTALAHGCDLVITRAGPTPRTYTPLQTQRFRNSLRSDAGCVIMMGDHVVSPAARLASAVVGYHGIGKGTGRIKAVEITVTGIAKGFYRTSRVIVGKHIAPAAEKTTMKVVLEHHHHHH
- protein production: not failed

Sequence: MSEINYSTVQYYLVLILIFIYLSLFVLEKKWPLRKATRPLLPRLAINFTFTLLVYVIASLFISPLAKATVLFTFSHDFGLLSMLPFNQWVVFILGFLLMDLSFYYWHALNHKLPLLWRFHVVHHADPDLDVSTAMRFHCVEIMYSSLFRLVQLGLIGVSPLLFFCYEFFFQAHTFFQHSNIKLPFRFERLINKIIVTPRMHGIHHSNYLNETNSNYGVVFSFWDRLHQTIKLDIPQQAIIIGVPGYSKPSDNSLIRLLLMPIKAQRHYWQIKKDFHFSRKSKTSDKKVRTLCE
- protein production: failed
